From paper PMC13215203
Numbering of substitutions follows the chain as printed. In names and notes the source's numbering stands.

B1: untagged SPD-5 amino acids 135-473, phosphorylated by PLK1, P91349 S170A; T178A; T198A (protein)
chain: MQSRIETSEDNFARQMKEFEAQKHAMEERIKELELAATDANNTAVGSFRGTLDDILKKNDPDFALTSGYEERKINDLEAKLLSEIDKVAELEDHIQQLRQELDDQSARLADSENVRAQLEAATGQGILGAAGNAMVPNSTFMIGNGRESQTRDQLNYIDDLETKLADAKKENDKARQALVEYMNKCSKLEHEIRTMVKNSTFDSSSMLLGGQTSDELKIQIGKVNGELNVLRAENRELRIRCDQLTGGDGNLSISLGQSRLMAGIATNDVDSIGQGNETGGTSMRILPRESQLDDLEESKLPLMDTSSAVRNQQQFASMWEDFESVKDSLQNNHNDTLE
B2: untagged SPD-5 amino acids 135-473, phosphorylated by PLK1, P91349 S170A; T178A; T198A; T274A; T335A; S339A; S340A (protein)
chain: B1 chain with T140A, T201A, S205A, S206A
B3: untagged SPD-5 amino acids 135-473, phosphorylated by PLK1, P91349 T274A; T335A; S339A; S340A (protein)
chain: B1 chain with A36S, A44T, A64T, T140A, T201A, S205A, S206A
B4: untagged SPD-5 amino acids 135-473, not phosphorylated, P91349 S170A; T178A; T198A; T274A; T335A; S339A; S340A (protein)
chain: B1 chain with T140A, T201A, S205A, S206A
B5: untagged SPD-5 amino acids 135-473, not phosphorylated, P91349 T274A; T335A; S339A; S340A (protein)
chain: B1 chain with A36S, A44T, A64T, T140A, T201A, S205A, S206A
B6: untagged SPD-5 amino acids 135-473, not phosphorylated, P91349 S170A; T178A; T198A (protein)
chain: B1 chain

target: reconstituted C. elegans γ-tubulin complex (γTuC): γ-tubulin^TBG-1, GCP2^GIP-2-5Myc, GCP3^GIP-1 and MZT-1, P34475;G5EF84; assay: γTuC pull-down (γTuC-coated Myc beads), anti-SPD-5 immunoblot band intensity; conditions: chain shown with the change; +PLK1 preincubation (500 nM PLK1(T194D), 2.0 μM fragment, 1 hour at 23°C); binding 2 hours at 4°C, SPD-5 fragment 75 nM; scale: band intensity relative to SPD-5 135-473 without PLK1
Sequence (chain, as listed by the source, chain 1 of 4): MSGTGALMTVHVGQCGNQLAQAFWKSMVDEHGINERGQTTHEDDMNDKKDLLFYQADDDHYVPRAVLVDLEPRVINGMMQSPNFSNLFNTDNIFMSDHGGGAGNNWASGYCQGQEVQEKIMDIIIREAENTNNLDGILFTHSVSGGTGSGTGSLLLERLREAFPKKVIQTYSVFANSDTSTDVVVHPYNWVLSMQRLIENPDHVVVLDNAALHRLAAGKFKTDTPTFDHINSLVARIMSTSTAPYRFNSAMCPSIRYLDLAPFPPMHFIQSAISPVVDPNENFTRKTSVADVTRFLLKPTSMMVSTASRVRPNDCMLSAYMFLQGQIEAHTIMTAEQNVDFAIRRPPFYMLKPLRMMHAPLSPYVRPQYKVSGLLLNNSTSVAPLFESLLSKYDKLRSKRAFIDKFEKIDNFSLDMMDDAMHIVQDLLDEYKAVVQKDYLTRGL
Sequence (chain, as listed by the source, chain 2 of 4): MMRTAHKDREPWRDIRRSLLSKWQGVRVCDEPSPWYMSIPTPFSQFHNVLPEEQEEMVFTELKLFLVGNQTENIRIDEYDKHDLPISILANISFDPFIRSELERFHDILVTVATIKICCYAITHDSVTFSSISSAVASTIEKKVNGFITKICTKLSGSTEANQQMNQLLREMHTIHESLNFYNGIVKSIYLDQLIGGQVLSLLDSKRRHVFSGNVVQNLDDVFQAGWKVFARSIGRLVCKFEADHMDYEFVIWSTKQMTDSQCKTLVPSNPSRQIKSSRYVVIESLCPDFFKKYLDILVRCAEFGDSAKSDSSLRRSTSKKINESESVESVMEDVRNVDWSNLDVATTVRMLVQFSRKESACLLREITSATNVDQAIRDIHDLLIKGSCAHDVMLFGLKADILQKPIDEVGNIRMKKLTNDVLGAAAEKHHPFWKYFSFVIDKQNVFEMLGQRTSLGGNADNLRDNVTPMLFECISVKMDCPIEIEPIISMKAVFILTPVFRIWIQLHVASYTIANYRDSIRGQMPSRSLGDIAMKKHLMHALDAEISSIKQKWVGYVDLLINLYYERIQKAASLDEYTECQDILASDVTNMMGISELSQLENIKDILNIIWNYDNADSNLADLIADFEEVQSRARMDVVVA
Sequence (chain, as listed by the source, chain 3 of 4): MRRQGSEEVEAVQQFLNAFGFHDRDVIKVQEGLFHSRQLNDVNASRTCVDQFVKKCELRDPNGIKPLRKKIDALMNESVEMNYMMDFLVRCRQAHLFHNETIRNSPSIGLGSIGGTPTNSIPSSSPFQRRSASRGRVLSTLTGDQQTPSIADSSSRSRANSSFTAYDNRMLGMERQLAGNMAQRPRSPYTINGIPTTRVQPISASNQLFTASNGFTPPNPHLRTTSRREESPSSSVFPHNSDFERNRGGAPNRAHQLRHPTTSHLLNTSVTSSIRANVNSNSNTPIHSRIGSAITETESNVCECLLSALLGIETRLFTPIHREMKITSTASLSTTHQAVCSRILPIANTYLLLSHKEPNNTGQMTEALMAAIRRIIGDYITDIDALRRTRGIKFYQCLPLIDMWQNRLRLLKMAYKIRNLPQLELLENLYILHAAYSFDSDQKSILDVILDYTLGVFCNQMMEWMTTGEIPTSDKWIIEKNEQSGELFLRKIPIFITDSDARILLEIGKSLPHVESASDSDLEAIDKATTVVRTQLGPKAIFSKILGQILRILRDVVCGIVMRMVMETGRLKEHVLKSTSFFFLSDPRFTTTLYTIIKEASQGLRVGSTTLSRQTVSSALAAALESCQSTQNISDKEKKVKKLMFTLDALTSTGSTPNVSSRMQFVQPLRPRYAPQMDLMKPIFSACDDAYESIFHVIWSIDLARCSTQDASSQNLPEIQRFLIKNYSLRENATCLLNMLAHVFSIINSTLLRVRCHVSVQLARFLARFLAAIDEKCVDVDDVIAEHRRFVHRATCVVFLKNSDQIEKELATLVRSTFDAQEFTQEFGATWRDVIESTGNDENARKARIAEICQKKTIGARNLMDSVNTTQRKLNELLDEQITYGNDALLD
Sequence (chain, as listed by the source, chain 4 of 4): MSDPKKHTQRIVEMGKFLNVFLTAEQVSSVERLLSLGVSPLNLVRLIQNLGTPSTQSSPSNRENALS

| response | Binder |
| --- | --- |
| 0.1 | B1 |
| 0 | B2 |
| 2.8 | B3 |

same assay, conditions: chain shown with the change; no PLK1; binding 2 hours at 4°C, SPD-5 fragment 75 nM; scale: band intensity relative to SPD-5 135-473 without PLK1

| response | Binder |
| --- | --- |
| 0.1 | B4 |
| 0.1 | B5 |
| 0.7 | B6 |
